A short description of this data set: yeast display, Sf9 membrane polyspecificity reagent, FACS + sequencing; frameworks hold sequencing errors. In outline: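 Sorting gates, low and high (top ~1%), were placed on anti-HA fluorescence to track expression and on streptavidin fluorescence to track reagent binding. A clone's polyreactivity label is taken from the gate it came out of. The reagent was 10% biotinylated, detergent-solubilized Sf9 membrane, applied for 1 hour at 4 °C to galactose-induced yeast display cells.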
Consider “QVQLVESGGGLVQAGGSLRLSCAASGSTFLAYAMGWYRQAPGKERELVAAISSSGGRPYYADSVKGRFTISRDYAKNTVYLQMNSLNPEDTAVYYCAARYKNRGGFGYWGQGTRVTVSS”, for which the “polyreactivity (PSR sort gate)” value is on record as “high polyreactivity”.

Regarding “QVQLVESGGGLVQAGGSLRLSCAASGSIFGLYGMGWYRQAPGKERELVAAISSGGTTNYADSVKGRFTISRDNAKNTVYLQMNSLKPEDTAVYYCAARYSRGAYIYYGWYGYGYWGQGTQVTVSS”, the “polyreactivity (PSR sort gate)” value is “low polyreactivity”.

As for “QVQLVESGGGLVQAGGSLRLSCAASGFTFRVYAMGWYRQAPGKERELVAAITSGSSTTYADSVKGRFTISRDNAKNTVYLQLNSLKPEDTAVYYCNARRRGRVTGSYGYWGQGTQVTVSS”, the “polyreactivity (PSR sort gate)” value was “high polyreactivity”.

For “QDQLVESGVGLVHAGGSLRLSCAATGRIFTYNAMGWYRQAPWKEREVVAAITSSGGSTYYADSVKGRFTISRDNAKNTVYLQMNSLKQEDSAVSYCATVRRGRDYWGQGTQVTVSS”, the “polyreactivity (PSR sort gate)” value is on record as “high polyreactivity”.

For “QVQLVESGGGLVQAGGSLRLSCAASGRTFKYNAMAWYRQAPGTERELVADISYSGDSTYYADSVKGRFTISRDNAKNTVYLQMNSLKPEDTAVYYCNAVLTHGRLWRAHGYWGQGTQVTVSS”, the “polyreactivity (PSR sort gate)” value is given as “high polyreactivity”.

Regarding “QVQLVESGGGLVQAGGSLRLSCAASGRIFLFYTMGWYRQAPGKERELVAGITFSGGSTYYADSVKGRFTISRDNAKNTVYLQMNSLKPEDTAVYYCNARRWWQSYDYWGQGTQVTVSS”, the “polyreactivity (PSR sort gate)” value is on record as “high polyreactivity”.

As to “QVQLVESGGGLVQAGGSLRLSCGASGRIFPGNAMGWYRQATGKERELVAGISFSGGRTYYADSVKGRFTISRDNAKNTVYLQMNSLTPEDSAVYYCATKYLQHWWRYDYWGQGTQVTVSS”, the “polyreactivity (PSR sort gate)” value was “low polyreactivity”.

For “QVQLVESGGGLVQAGGSLRLSCAASGSIFATYAMGWYRQAPGKERELVAAISRSGGSTNYADSVKGRFTISRDNAKNTVYLQMNSLKPEDTAVYYCAAVRPHWYGQGWALYWFEYWGQGTQVTVSS”, the “polyreactivity (PSR sort gate)” value is reported as “low polyreactivity”.

“QVQLVESGGGLVQAGGSLRLSCAASGITPDYAMGWYRQAPGTERELVAAITWSGGRTYYADSVKGRFTISRDNAKNTVYLQMNSLKPEDTAVYYCAAEHYLGYDYWGQGTQVTVSS”: the “polyreactivity (PSR sort gate)” value is on record as “low polyreactivity”.

For the sequence “QVQLVESGGCLVQAGGSLRLSCDASGGIFVSYAMGWYRQAPRKDRELVAAITSGGGTSYADSVKGRFTISRDNAKNTVYLQMNSLKPEDTAVYYCNADGYLAERFVIRLDEYRDYDYWGQGTQVTVSS”, the “polyreactivity (PSR sort gate)” value is “low polyreactivity”.

For “QVQLVESVGGLVQAGGSLRLSCAASGFIFKRYAMGWYRQAPGKERELVAAITGSGGSTYYADSVKGRFTISRDNAKNTVYLQMNSLKPEDTAVYYCARGNGGSLDYWGQGTQVTVSS”, the “polyreactivity (PSR sort gate)” value was “high polyreactivity”.

In the case of “QLQLVESGGGLVQAGGSLRLSCAASGSTFVVYARGWYRQAPGKERELVAAITRDDGRTYYADSVKGRFTISRDNAKNTVYLQMNSLKPEDTAVYYCAAGYSFGYGYWGQGTQVTVSS”, the “polyreactivity (PSR sort gate)” value is “low polyreactivity”.

For the sequence “QVQLVESGGGLVQAGGSLRLSCAASGFTFDYYAMGWYRQAPGKERELVAAISKSGGSTYYADSVKGRFTISRDNAKNTVYLQLISLKPEDTAVYYCAAYTYVRSKNKGGDYWGQGTQVTVSS”, the “polyreactivity (PSR sort gate)” value is “high polyreactivity”.

On to “QVQLVETGGGLVQAGGSLRLSCAASGSTFTRYGMGWYRQAPGKERELVADITTSGSSTYYADSVKGRFTISRDNAKNTVYLQMNSLKPEDTAVYYCAADWSSWGFDYWGQGTQVTVSS”, for which the “polyreactivity (PSR sort gate)” value is reported as “low polyreactivity”.

“QVQLVESGGGLVQAGGSLRLSCAASGRILARYAMGWYRQAPGKERELVAAITSRGGSTSYADSVKGRFTISRDNAKNTVYLQMNSLKPEDTAVYYCAKGERSANGGLFAGRHGYWGQGTQVTVSS”: the “polyreactivity (PSR sort gate)” value is reported as “low polyreactivity”.

For the sequence “QVQLVESGGGLVQAGGSLRLSCAASGRIFPYYAMGWYRQAPGKEREFVAAITKRGGSTSYADSVKGRFTISRDNAKNTVYLQMNSLKPEDTAVYYCAARRGSGIVTYYGGDYWGQGTQVTVSS”, the “polyreactivity (PSR sort gate)” value is on record as “low polyreactivity”.

For the sequence “QVQLVESGGGLVQAGGSLRLSCAASGSTFDGNAMGWYRPAPGKERELVAAITWRDGSTSYADSVKGRFTISRDNAKNTVYLQMNSLKPEDTAVYYCNADPGYLDEEYWGQGTQVTVSS”, the “polyreactivity (PSR sort gate)” value is given as “low polyreactivity”.

Take “QVQLGESGGGLVQAGGSLRLSCAASGFIFGYYAMGWYRQAPGKERELVAAINYNDDSTYYADSVKGRFTISRDNAKNTVYLQMNSLKPEDTAVYYCAAGVWYGYYVSIYLDYDYWGQGTQVTLSS”: the “polyreactivity (PSR sort gate)” value is reported as “low polyreactivity”.

In the case of “QVQLVESGGGLVQAGGSLRLSCAASGRIFHSYAMGWYRQAPGKERELVAAISSGGNTYYADSVKGRFTISRDNAKNTVYLQMNSLKREDTAVYYCARDWDFLYDGFHSDSYEYWGQGTQVTVSS”, the “polyreactivity (PSR sort gate)” value is “low polyreactivity”.

In the case of “QVQLVESGGGLVQAGGSLRLSCAASGRTFKLYAMGWYRQAPGKERELVAAITESGGSTYYAVSVKGRFTISRDNAKNTVYLQMNSLKPEDTAVYYCAAYASAGTRGGYDYWGQGTQVTVSS”, the “polyreactivity (PSR sort gate)” value is recorded as “low polyreactivity”.

As to “QVQLVESGGGLVQAGGSLRLSCAASGSIFYYNAMGWYRQAPGKEREFVAAITISGGDTYYADSVKGRFTISRDNAKNTVYLQMNSLKPEDTAVYYCAAESYRGYDYWGQGTQVTVSS”, the “polyreactivity (PSR sort gate)” value is “high polyreactivity”.

“QVQLVESGGGLVQAGGSLRLSCAASGRIFGPYVMGWYRQAPGKERDFVAAISRRTGSTYYADSVKGRFTISRDNAKNTVYLQMNSLKPEDTAVYYCAATYYFSHVVGYGYWGQGTQVTVSS”: the “polyreactivity (PSR sort gate)” value is “high polyreactivity”.

As for “QVQLVESGGGLVQAGGSLRLSCAASGSIFRAYAMGWYRQAPGKERELVADISRSGGSTYYADSVKGRFTISRDNAKNTVYLQLNSLKPEDTAVYYCAAVFYLYSNLYGEYDYWGQGTQVTVSS”, the “polyreactivity (PSR sort gate)” value is listed as “low polyreactivity”.

“QVQLVESGVGLVQAAGSLRLSCAASGSIFPDNAMGWSRQAPGKERELVAAIDKGTGSTNYADSVKGRFTISRDNAKNTVYLQMNSLKPEDTAVYYCATYVVTLYWWYTYDYWGQGTQVTVSS”: the “polyreactivity (PSR sort gate)” value was “low polyreactivity”.

“QFQLVETGGGLVQAGGSLRLSCAASGRTFRFNAMGWYRQAPRKEREFVAAITSGGGTYYADSVKGRFTISRDNAKNPVYLQMNCLKPEDTAVYYCAAPRQYYLMVYWGQGTQVTVSS”: the “polyreactivity (PSR sort gate)” value is given as “low polyreactivity”.

For the sequence “QVQRVESGGGLVQAGGSLRLSCAASGFTFRWYAMGWYRQAPGKEREMVAAISRSGASTYYADSVKGRFTISRDNAKNTVYLQMNSLKPEDTAVYYCAVLWHGRRPLYKLRTGPEYDYWGQGTQVTVSS”, the “polyreactivity (PSR sort gate)” value is recorded as “high polyreactivity”.

With “QVQLVESGGGLVQAGGSLRLSCAASGRIFSKNAMGWYRQAPGKVRELVAAISYITGSTYADSVKGRFKISRDNAKNTDYLQMNSLKPEYTAVYYCAASSTWYGYYIYVFRAYDYWGQGTQLTVSS”, the “polyreactivity (PSR sort gate)” value is “low polyreactivity”.

For “QVQLVESGGGLVQAGGSLRLSCAASGRIFWRNTMGWYRQAPGKERELVAAITGSSTRTYYADSVKGRFTISRDNAKNTVYLQMNSLKPEDTAVYYCAARSYPYQVAAGYVTRFNYWGQGTQVTVSS”, the “polyreactivity (PSR sort gate)” value is listed as “high polyreactivity”.

For “QVQLVESGGGLVQAGGSLRLSCAASGRTFWYYAMGWYRQAPGKAREWVATISYRGGSTYYADSVKGRFTISRDNAKNTVNLQMNSLKPEDTAVYYCAAKQWWGGRPKVDYWGQGTQVTVSS”, the “polyreactivity (PSR sort gate)” value is recorded as “high polyreactivity”.

Take “QVQLVESGGGLVQAGGSLRLSCAASGFIFYPYAMGWYRQAPGKERELVAVITSGGRTYYADSVKGRFTISRDNAKNTVYLQMNSLKPEDTAVYYCAARYGRIHWKANWPEYGYWGQGTQVTVSS”: the “polyreactivity (PSR sort gate)” value is listed as “low polyreactivity”.

These data come from the nanobody polyreactivity screen of Harvey et al. (2022).
